From patent US20250250593A1, “METHOD FOR PREPARING ALPHA-BRANCHED BETA'-HYDROXY CARBONYL COMPOUNDS BY ENZYMATIC-CATALYZED REDUCTIVE ALDOL REACTION” (Max-Planck-Gesellschaft zur Förderung der Wissenschaften …, priority 2022, published 2025)
Substitutions are numbered along the chain they refer to. Names may count otherwise. “And” between values parts separate entries of the source, which are not always exact repeats. Equal entries are not always repeated.

Tests used:
[1] = target: T1, Kitasatospora setae crotonyl-CoA carboxylase/reductase (KsCcr), wild type (WT), SEQ ID NO: 1 (Kitasatospora setae, UniProt E4N096); format: biochemical; details: apparent turnover rate with formaldehyde as electrophile; 100 mM K2HPO4 pH 8.0, 30 °C; mean ± standard error
T1 construct: gene provided by JGI
T1 sequence (E4N096 1-445): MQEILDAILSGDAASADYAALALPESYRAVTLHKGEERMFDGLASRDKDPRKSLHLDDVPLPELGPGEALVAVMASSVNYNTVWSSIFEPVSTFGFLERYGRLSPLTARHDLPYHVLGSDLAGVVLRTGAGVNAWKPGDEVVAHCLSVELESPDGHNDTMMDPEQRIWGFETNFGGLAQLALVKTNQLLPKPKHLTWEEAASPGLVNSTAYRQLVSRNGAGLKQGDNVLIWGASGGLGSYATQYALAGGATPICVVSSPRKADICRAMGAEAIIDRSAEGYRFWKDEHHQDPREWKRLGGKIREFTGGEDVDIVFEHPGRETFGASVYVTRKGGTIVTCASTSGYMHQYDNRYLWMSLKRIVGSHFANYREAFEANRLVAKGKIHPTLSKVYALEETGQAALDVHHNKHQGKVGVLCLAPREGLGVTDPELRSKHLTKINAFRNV
Experimental: His-tagged KsCcr and its variants were expressed in E. coli BL21 (DE3). Cells in terrific broth were grown at 37° C. to an OD600=0.8-1.0 upon which expression for 12-16 h at 23° C. was induced by the addition of 500 μM IPTG (Isopropyl-D-β-thiogalactopyranoside). Cells were harvested for 15 min at 7500× g at 4° C. then resuspended in 2 mL of buffer A (50 mM Tris, 500 mM NaCl, 1 M L-Proline, pH=7.5) per gram of pellet. The suspension was treated with […] of DNAse I, 5 mM MgCl2, 10 μg/ml of lysozyme and incubated on ice for 20 min upon which cells were lysed using a sonicator. The lysate was clarified at 45000× g at 4° C. for 40 min and then loaded onto a pre-equilibrated 1 mL HisTrap FF column and washed with 15% buffer B (50 mM Tris, 500 mM NaCl, 1 M L-Proline, 500 mM imidazole, pH=7.5) for 20-30 column volumes until the UV 280 nm reached the baseline level. […]
Formaldehyde stock solution concentration was determined by following the formation of phenylhydrazone at 368 nm (εPhenylhydrazone,368 nm=6.1 mM^−1 cm^−1). […]
For reactions in which the full conversion to the aldol product was achieved assays were performed on a Cary-60 UV/Vis spectrophotometer (Agilent) at 30° C. using quartz cuvettes (1 mm, 3 mm or 10 mm path length; Hellma). […] Kinetic parameters for one substrate were determined by varying its concentration while the others were kept constant at 10 times their KM value.

[2] = substrate: C/C=C/C(=O)SCCNC(=O)CCNC(=O)[C@H](O)C(C)(C)COP(=O)(O)OP(=O)(O)OC[C@H]1O[C@@H](n2cnc3c(N)ncnc32)[C@H](O)[C@@H]1OP(=O)(O)O; assay: cells, lysate or membranes named; format: biochemical, Kitasatospora setae; details: other substrates at 10 times KM, mean ± standard error
Experimental: (§1) His-tagged KsCcr and its variants were expressed in E. coli BL21 (DE3). Cells in terrific broth were grown at 37° C. to an OD600=0.8-1.0 upon which expression for 12-16 h at 23° C. was induced by the addition of 500 μM IPTG (Isopropyl-D-β-thiogalactopyranoside). Cells were harvested for 15 min at 7500× g at 4° C. then resuspended in 2 mL of buffer A (50 mM Tris, 500 mM NaCl, 1 M L-Proline, pH=7.5) per gram of pellet. The suspension was treated with 10 mg/mL of DNAse I, 5 mM MgCl2, 10 μg/ml of lysozyme and incubated on ice for 20 min upon which cells were lysed using a sonicator. The lysate was clarified at 45000× g at 4° C. for 40 min and then loaded onto a pre-equilibrated 1 mL HisTrap FF column and washed with 15% buffer B (50 mM Tris, 500 mM NaCl, 1 M L-Proline, 500 mM imidazole, pH=7.5) for 20-30 column volumes until the UV 280 nm reached the baseline level. The protein was eluted by applying 100% buffer B, collected then pooled and desalted into 12.5 mM Tris, 125 mM NaCl, 1 M L-Proline pH=7.5. […] The protein was flash frozen in N2 (I) and stored at −80° C. if not immediately used for assays.
(§2) Assays were performed on a Cary-60 UV/Vis spectrophotometer (Agilent) at 30° C. using quartz cuvettes (10 mm path length; Hellma) contained K2HPO4 pH=8.0 and 3 mM phenylhydrazine.
(§3) For reactions in which the full conversion to the aldol product was achieved assays were performed on a Cary-60 UV/Vis spectrophotometer (Agilent) at 30° C. using quartz cuvettes (1 mm, 3 mm or 10 mm path length; Hellma). Reactions were performed in 100 mM K2HPO4 pH=8.0. Kinetic parameters for one substrate were determined by varying its concentration while the others were kept constant at 10 times their KM value. […] For reactions where both butyryl-CoA and the aldol product where formed the steady state parameters were determined using a discontinuous assay. Reactions of 100 μL volume were performed in 100 mM K2HPO4 pH=8.0 at 30° C. and each concentration was assayed in triplicates. Samples of 20 μL reaction were quenched with 2 μL of 50% formic acid and centrifuged for 10 min at 17′000 g at 4° C. 10 μL of this solution were diluted in 40 μL of 500 mM Tris HCl pH=7 and incubated overnight at room temperature. Samples were analyzed using by HPLC over an Agilent Eclipse Plus C18, 3.5 μm 100 Å, 100×2.1 mm, 4.6×100 mm column using 5% to 30% acetonitrile gradient over 7.5 min with 25 mM ammonium formate pH=8.1 as the aqueous phase.

[3] = substrate: NC(=O)C1=CN([C@@H]2O[C@H](COP(=O)(O)OP(=O)(O)OC[C@H]3O[C@@H](n4cnc5c(N)ncnc54)[C@H](OP(=O)(O)O)[C@@H]3O)[C@@H](O)[C@H]2O)C=CC1; assay: cells, lysate or membranes named; details: other: apparent KM, 100 mM K2HPO4 pH 8.0, 30 °C, other substrates at 10 times KM, mean ± standard error
[4] = substrate: C=O; assay: cells, lysate or membranes named; format: biochemical, Kitasatospora setae; details: other: calculated with K = 1000 for the equilibrium between formaldehyde and its methylene diol form, pH 8.0, 30 °C
Experimental: as §1, §2, §3

[5] = substrate: NC(=O)C1=CN([C@@H]2O[C@H](COP(=O)(O)OP(=O)(O)OC[C@H]3O[C@@H](n4cnc5c(N)ncnc54)[C@H](OP(=O)(O)O)[C@@H]3O)[C@@H](O)[C@H]2O)C=CC1; assay: cells, lysate or membranes named; format: biochemical, Kitasatospora setae; details: other: 100 mM K2HPO4 pH 8.0, 30 °C, other substrates at 10 times KM, mean ± standard error
Experimental: as §1, §2, §3

CcCcrPAG = assay: Substrate promiscuity screen: enoyl-CoAs with aldehydes, LC-MS; format: biochemical, Caulobacter crescentus; details: six enoyl-CoAs with formaldehyde, acetaldehyde, propionaldehyde, benzaldehyde; with Acx4 and catalase
Excerpt: According to phylogenetic and structural analysis, KsCcr belongs to the ECR-1 subfamily of enzymes that are mainly restricted to short-chain enoyl-CoAs. To increase the substrate scope of reductive aldol reactions, the inventors sought to use a more promiscuous enzyme. To that end, a triple variant of Caulobacter crescentus crotonyl-CoA carboxylase/reductase (CcCcrC146P/1169A/F373G, here CcCcrPAG) was employed that had been engineered to accept a variety of enoyl-CoAs, including short- and long-chain, branched, aromatic, bulky and halogenated analogs. Six different enoyl-CoA substrates (FIG. 4) were synthesized and tested in combination with four different aldehydes (formaldehyde, acetaldehyde, propionaldehyde, benzaldehyde) and by LC-MS.
Assays were performed in 100 mM K2HPO4 pH=8.0 at 30° C. and 10 μL samples were taken at different time points and quenched with 1 μL of 50% formic acid. The samples were spinned at 17000 g for 10 min at 4° C. to precipitate the protein and then analyzed by LC-MS.
Determination of CoA esters was performed using a HRES-LC-MS. […]

[6] = tested on: crotonyl-CoA carboxylase/reductase obtained from Caulobacter crescentus (CcCcr); assay: First empirical data on reductive aldol reaction by CcCcr; format: biochemical
[7] = other: apparent KM, 100 mM K2HPO4 pH 8.0, 30 °C
[8] = other: 100 mM K2HPO4 pH 8.0, 30 °C

Chain of crotonyl-CoA carboxylase/reductase obtained from Caulobacter crescentus (CcCcr) (as listed by the source): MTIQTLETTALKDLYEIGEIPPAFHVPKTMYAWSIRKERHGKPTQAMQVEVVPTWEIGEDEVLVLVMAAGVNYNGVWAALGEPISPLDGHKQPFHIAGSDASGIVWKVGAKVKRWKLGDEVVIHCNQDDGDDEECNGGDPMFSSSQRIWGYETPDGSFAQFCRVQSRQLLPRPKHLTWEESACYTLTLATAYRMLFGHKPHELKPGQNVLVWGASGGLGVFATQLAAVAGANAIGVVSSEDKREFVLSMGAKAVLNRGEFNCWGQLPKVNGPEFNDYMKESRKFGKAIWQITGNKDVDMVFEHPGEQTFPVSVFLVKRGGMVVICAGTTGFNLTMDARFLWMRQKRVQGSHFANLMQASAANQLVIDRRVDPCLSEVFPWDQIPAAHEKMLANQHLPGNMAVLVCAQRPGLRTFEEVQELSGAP

C/C=C/C(=O)SCCNC(=O)CCNC(=O)[C@H](O)C(C)(C)COP(=O)(O)OP(=O)(O)OC[C@H]1O[C@@H](n2cnc3c(N)ncnc32)[C@H](O)[C@@H]1OP(=O)(O)O [Crotonyl-CoA, crotonyl-CoA]
Kcat [1]: 30 s⁻¹ and 30 ± 1 s⁻¹

B1: Kitasatospora setae crotonyl-CoA carboxylase/reductase (KsCcr), wild type (WT), SEQ ID NO: 1 (Kitasatospora setae KM-6054) (protein)
chain: T1 sequence (E4N096 1-445)
notes: gene provided by JGI
Km [2, 7]: 33 ± 4 µM | kcat [2, 7]: 30 ± 1 s⁻¹ | Km [3]: 389 ± 49 µM

B2: Kitasatospora setae crotonyl-CoA carboxylase/reductase (KsCcr) variant His365Asn (H365N), SEQ ID NO: 19 (Kitasatospora setae KM-6054; H365N) (protein)
chain: T1 sequence (E4N096 1-445) with H365N
notes: gene provided by JGI
Km [4]: 66 ± 23 µM | kcat [4]: 3.1 ± 0.2 s⁻¹ | Km [2, 8]: 69 ± 17 µM | kcat [2, 8]: 3.1 ± 0.2 s⁻¹ | Km [5]: 16 ± 7 µM

B3: CcCcrPAG: triple variant of Caulobacter crescentus crotonyl-CoA carboxylase/reductase engineered to accept a variety of enoyl-CoAs, SEQ ID NO: 29 (protein)
chain: MTIQTLETTALKDLYEIGEIPPAFHVPKTMYAWSIRKERHGKPTQAMQVEVVPTWEIGEDEVLVLVMAAGVNYNGVWAALGEPISPLDGHKQPFHIAGSDASGIVWKVGAKVKRWKLGDEVVIHPNQDDGDDEECNGGDPMFSSSQRAWGYETPDGSFAQFCRVQSRQLLPRPKHLTWEESACYTLTLATAYRMLFGHKPHELKPGQNVLVWGASGGLGVFATQLAAVAGANAIGVVSSEDKREFVLSMGAKAVLNRGEFNCWGQLPKVNGPEFNDYMKESRKFGKAIWQITGNKDVDMVFEHPGEQTFPVSVFLVKRGGMVVICAGTTGFNLTMDARFLWMRQKRVQGSHGANLMQASAANQLVIDRRVDPCLSEVFPWDQIPAAHEKMLANQHLPGNMAVLVCAQRPGLRTFEEVQELSGAP
modifications: CcCcr C125P/I148A/F352G
conversion of enoyl-CoAs to aldol products (CcCcrPAG): catalyzed conversion of all the tested enoyl-CoAs

B4: CcCcr: wild type crotonyl-CoA carboxylase/reductase obtained from Caulobacter crescentus, SEQ ID NO: 2 (protein)
chain: B3 chain with P125C, A148I, G352F
modifications: Caulobacter crescentus CcCCR crotonyl-CoA carboxylase/reductase
ability to catalyze a reductive aldol reaction [6]: able to catalyze a reductive aldol reaction
